Assay results as given in PMC6540616.
One block for each substance: values may come before it.

What was measured:
Experiment in all cases: DHFR protein complementation assay (yeast growth)
Conditions in all cases: MTX-containing media relative to MTX-free media; read off a plot
[1] = biological target: caskin1 SAM fused to DHFR F3 (UniProt Q6P9K8)
[2] = biological target: PTPσ full-length (FL) fused to DHFR F1-2, wild type
[3] = biological target: trio IgPSK fused to DHFR F3

Chain of UniProt Q6P9K8 (Q6P9K8 344-636): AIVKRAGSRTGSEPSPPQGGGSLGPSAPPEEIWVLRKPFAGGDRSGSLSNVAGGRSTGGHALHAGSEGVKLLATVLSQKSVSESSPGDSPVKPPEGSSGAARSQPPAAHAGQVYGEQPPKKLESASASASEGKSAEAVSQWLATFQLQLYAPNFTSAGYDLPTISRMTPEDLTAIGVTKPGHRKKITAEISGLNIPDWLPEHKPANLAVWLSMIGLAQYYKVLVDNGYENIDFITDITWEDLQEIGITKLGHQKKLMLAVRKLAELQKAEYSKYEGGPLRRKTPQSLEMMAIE

other: interaction score [1]: -0.11
Substance: PTPσ full-length (FL) fused to DHFR F1-2, wild type EGFID

other: interaction score [2]: 0.8
Substance: PTPσ full-length (FL) fused to DHFR F1-2, wild type QFG

other: interaction score [3]: 0.93
Substance: PTPσ intracellular region (ICR) fused to DHFR F1-2, wild type EGFID
